# According to paper PMC6269477:
# Legend:
# [1] = biological target: PBP1B (untagged, purified) (E. coli) (UniProt P02919)
# [2] = biological target: PBP1A (untagged, purified) (E. coli) (UniProt P02918)
# PBP1A (untagged, purified) (E. coli), sequence (P02918 whole entry): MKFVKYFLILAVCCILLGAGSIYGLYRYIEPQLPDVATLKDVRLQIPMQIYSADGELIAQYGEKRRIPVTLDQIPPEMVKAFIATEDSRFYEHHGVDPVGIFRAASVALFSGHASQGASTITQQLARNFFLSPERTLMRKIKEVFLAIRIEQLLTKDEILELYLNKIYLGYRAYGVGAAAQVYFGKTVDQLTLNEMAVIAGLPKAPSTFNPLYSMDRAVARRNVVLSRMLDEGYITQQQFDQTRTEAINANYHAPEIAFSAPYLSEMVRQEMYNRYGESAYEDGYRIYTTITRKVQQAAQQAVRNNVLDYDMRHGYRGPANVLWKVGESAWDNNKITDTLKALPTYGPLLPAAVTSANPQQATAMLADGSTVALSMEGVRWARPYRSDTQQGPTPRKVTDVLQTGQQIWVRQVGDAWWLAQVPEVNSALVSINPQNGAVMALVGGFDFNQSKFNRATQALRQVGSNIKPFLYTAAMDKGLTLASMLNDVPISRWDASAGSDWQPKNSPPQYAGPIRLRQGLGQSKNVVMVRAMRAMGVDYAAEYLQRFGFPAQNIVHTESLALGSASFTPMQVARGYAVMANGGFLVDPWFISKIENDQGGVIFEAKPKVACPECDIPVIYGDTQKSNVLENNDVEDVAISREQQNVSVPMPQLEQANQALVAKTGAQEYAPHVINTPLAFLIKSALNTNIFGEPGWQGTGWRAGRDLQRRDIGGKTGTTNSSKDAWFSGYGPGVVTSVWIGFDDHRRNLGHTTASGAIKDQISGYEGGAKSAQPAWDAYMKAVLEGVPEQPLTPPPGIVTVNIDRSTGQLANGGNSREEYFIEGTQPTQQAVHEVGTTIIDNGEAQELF
# PBP1B (untagged, purified) (E. coli), sequence (P02919 46-844 limits assumed): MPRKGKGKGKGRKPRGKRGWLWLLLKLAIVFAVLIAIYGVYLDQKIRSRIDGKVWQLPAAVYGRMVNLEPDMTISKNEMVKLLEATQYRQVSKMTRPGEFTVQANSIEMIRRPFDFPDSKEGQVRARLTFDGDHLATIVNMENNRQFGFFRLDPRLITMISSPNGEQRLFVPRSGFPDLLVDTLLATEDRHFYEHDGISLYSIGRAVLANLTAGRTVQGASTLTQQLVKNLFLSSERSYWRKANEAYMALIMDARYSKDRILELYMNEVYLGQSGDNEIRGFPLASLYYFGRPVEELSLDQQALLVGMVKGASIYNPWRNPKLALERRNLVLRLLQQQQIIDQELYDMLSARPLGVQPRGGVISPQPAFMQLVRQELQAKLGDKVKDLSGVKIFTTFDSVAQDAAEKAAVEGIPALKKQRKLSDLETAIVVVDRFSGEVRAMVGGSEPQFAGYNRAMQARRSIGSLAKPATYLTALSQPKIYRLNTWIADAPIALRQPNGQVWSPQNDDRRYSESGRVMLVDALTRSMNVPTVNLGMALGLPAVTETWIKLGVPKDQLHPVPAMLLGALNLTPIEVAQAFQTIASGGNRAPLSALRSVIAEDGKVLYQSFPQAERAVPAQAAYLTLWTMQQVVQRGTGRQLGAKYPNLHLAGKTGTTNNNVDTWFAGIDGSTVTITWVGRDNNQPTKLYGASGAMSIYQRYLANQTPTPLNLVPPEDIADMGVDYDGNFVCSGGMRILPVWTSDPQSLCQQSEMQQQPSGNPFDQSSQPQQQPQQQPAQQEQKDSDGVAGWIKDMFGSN
Substance,"GTase rate of PBP1B (consumption of dansylated lipid II), normalised to PBP1B alone, with FtsN [1] [fold]","GTase rate of PBP1A (consumption of dansylated lipid II), normalised to PBP1A alone, with FtsN [2] [fold]","GTase rate of PBP1B (consumption of dansylated lipid II), normalised to PBP1B alone, with ZipA [1] [fold]","GTase rate of PBP1B, normalised to PBP1B alone, with ZipA and FtsN together [1] [fold]","GTase rate of PBP1A (consumption of dansylated lipid II), normalised to PBP1A alone, with ZipA [2] [fold]","GTase rate of PBP1A, normalised to PBP1A alone, with ZipA and FtsN together [2] [fold]"
FtsN-His (from UniProt P29131 1-319) (natural protein),2.6,1.3,–,–,–,–
"ZipA (untagged, oligohistidine tag removed by thrombin) (from UniProt P77173 1-328) (natural protein)",–,–,1.4,3,2.6,3.4
